B1: INTS3 (parent)
chain: AQLQALRQKEVDFCISLLRERFME

Variants of: B1
Assay: protein stability index of a GFP-peptide fusion (GPS, HEK-293T) (PSI 1-6); higher = more stable
Details: c terminus: a fixed tail appended
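Note: lentivirally expressed fusions sorted by FACS into six bins by GFP to DsRed ratio, PSI derived from sequencing read proportions per bin multiplied by bin number.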

AQLQALRQKEVDTCISLLRERFME and AQLQAMRQKEVDFCISLLRERFME are the same in protein stability index: 2.44 for the first, 2.44 for the second.

Compared with AQLQALRQKEVDFCISLLRERFMT, AQLQALRQKGVDFCISLLRERFME is higher in protein stability index: 1.77 for the first, 2.1 for the second.

First: AQLQASRQKEVDFCISLLRERFME
Second: AQLQALRQKEVDFCISKLRERFME
The protein stability index of the first is higher: 2.14 for the first, 2 for the second.

Going from AQLQALRQKEVDFCISRLRERFME to AILQALRQKEVDFCISLLRERFME, the protein stability index falls from 2.08 to 1.67.

Going from AQLQALRQKEVDFCISLLRERFHE to AQLWALRQKEVDFCISLLRERFME, the protein stability index rises from 1.96 to 3.64.

Going from AQLQALRQKEVDFCGSLLRERFME to AQLQALRQKMVDFCISLLRERFME, the protein stability index rises from 2.6 to 2.87.

Going from AQLQALRQKEVDFCISFLRERFME to AQLQALRQKEVDFCISLLEERFME, the protein stability index falls from 1.9 to 1.

First: AQLQALRQKEVDFCISLLRERYME
Second: AQLQALRYKEVDFCISLLRERFME
The protein stability index of the first is lower: 2.21 for the first, 4.01 for the second.

First: AQLQALRQKEVDFCISLLRERTME
Second: AQLQALRQIEVDFCISLLRERFME
The protein stability index of the first is lower: 1.97 for the first, 3.07 for the second.

Compared with AQLQSLRQKEVDFCISLLRERFME, IQLQALRQKEVDFCISLLRERFME is higher in protein stability index: 2.33 for the first, 2.43 for the second.

First: AQLQYLRQKEVDFCISLLRERFME
Second: AQLQALQQKEVDFCISLLRERFME
The protein stability index of the first is lower: 2.68 for the first, 2.73 for the second.

Compared with AQLQALRQKEVDFPISLLRERFME, AQLQALRQKEVDFCIDLLRERFME is higher in protein stability index: 2.03 for the first, 2.09 for the second.

Compared with AQLQALRQKEVDFCISLLRPRFME, AQLQILRQKEVDFCISLLRERFME is lower in protein stability index: 2.08 for the first, 2.07 for the second.

Going from ADLQALRQKEVDFCISLLRERFME to AQLQALRQKEVDFCISLLRERFEE, the protein stability index falls from 3.29 to 1.46.

First: AQLQALRQKEVDFCISLLRERFRE
Second: AQLQALRQKEVDFCISLARERFME
The protein stability index of the first is higher: 2.91 for the first, 1.7 for the second.

First: AQLQALRQKEVDFCIMLLRERFME
Second: AQLQALRQKEVDFCISLLRERFMQ
The protein stability index of the first is higher: 4.38 for the first, 1.4 for the second.

First: AQWQALRQKEVDFCISLLRERFME
Second: AQLQALRQKEVDFCDSLLRERFME
The protein stability index of the first is higher: 2.71 for the first, 2.54 for the second.

Compared with AYLQALRQKEVDFCISLLRERFME, AQLQFLRQKEVDFCISLLRERFME is higher in protein stability index: 3.15 for the first, 4.25 for the second.

Going from AQLQALRQKDVDFCISLLRERFME to AQLQALRQKEVDFCISLLRERFMR, the protein stability index rises from 1.04 to 3.34.

First: AQLQALRQKEVDFCISLLFERFME
Second: AQLQALRQKENDFCISLLRERFME
The protein stability index of the first is lower: 1.87 for the first, 2.25 for the second.

Compared with AQLQALRQKEVDFCISLPRERFME, AQLQALRQKEVDFCISQLRERFME is higher in protein stability index: 2.04 for the first, 2.45 for the second.

First: AQLQALRQKEVDNCISLLRERFME
Second: AQLQALREKEVDFCISLLRERFME
The protein stability index of the first is higher: 2.37 for the first, 1.91 for the second.

First: AQLQALRQKEVDFCISLLRERFDE
Second: AQLQALYQKEVDFCISLLRERFME
The protein stability index of the first is lower: 1.95 for the first, 3.17 for the second.

Compared with HQLQALRQKEVDFCISLLRERFME, AQLQALRQDEVDFCISLLRERFME is lower in protein stability index: 3.79 for the first, 1.9 for the second.

Compared with AQLQALRQKEVRFCISLLRERFME, AQLQALRQKEVDFTISLLRERFME is lower in protein stability index: 2.19 for the first, 1.68 for the second.

Going from AQLQALRQKEVSFCISLLRERFME to AQLQAPRQKEVDFCISLLRERFME, the protein stability index falls from 3.29 to 2.25.

Going from AQLQALRQKEVDFKISLLRERFME to AQLMALRQKEVDFCISLLRERFME, the protein stability index rises from 1.93 to 2.55.

Going from MQLQALRQKEVDFCISLLRERFME to AQLQALRQKIVDFCISLLRERFME, the protein stability index falls from 2.4 to 2.25.

Compared with AQLQALRQKEVDSCISLLRERFME, AQLNALRQKEVDFCISLLRERFME is higher in protein stability index: 2.19 for the first, 2.4 for the second.

Going from ACLQALRQKEVDFCISLLRERFME to AQLQALRQKEVDFCISLLRIRFME, the protein stability index rises from 2.98 to 3.04.

Compared with AQLQMLRQKEVDFCISLLRERFME, AQLQALRQKEVDFCISLLRERFIE is higher in protein stability index: 1.51 for the first, 2.46 for the second.

Compared with AQLQALRQKEVYFCISLLRERFME, AQRQALRQKEVDFCISLLRERFME is lower in protein stability index: 2.09 for the first, 1.19 for the second.

First: LQLQALRQKEVDFCISLLRERFME
Second: AQLQALRQKEVDFCISLFRERFME
The protein stability index of the first is lower: 1.61 for the first, 3.16 for the second.

Compared with AQLQALRQKEVDFCISLGRERFME, AQLQAIRQKEVDFCISLLRERFME is lower in protein stability index: 3.07 for the first, 1.93 for the second.

First: AQLQALRQKEVDFCISLLSERFME
Second: AQLQALRQKESDFCISLLRERFME
The protein stability index of the first is higher: 3.43 for the first, 1.67 for the second.

Going from AQLQALRQKEVDPCISLLRERFME to AQLQALRQEEVDFCISLLRERFME, the protein stability index falls from 2.3 to 2.18.

First: AQLQALRQKEVDFCISLYRERFME
Second: AQLQALRQKEVDFCIVLLRERFME
The protein stability index of the first is higher: 3.92 for the first, 1.11 for the second.

Going from AQLQALRQKEVDFCWSLLRERFME to AQLQHLRQKEVDFCISLLRERFME, the protein stability index rises from 2.07 to 2.44.

First: AQLQLLRQKEVDFCISLLRERFME
Second: AQLQALRQKEQDFCISLLRERFME
The protein stability index of the first is higher: 3.11 for the first, 1.81 for the second.

First: AQLQALRQKEVDFCISYLRERFME
Second: AQLQALRQKEVDFCIGLLRERFME
The protein stability index of the first is lower: 2.51 for the first, 3.67 for the second.

Compared with AQLQAERQKEVDFCISLLRERFME, AQLQALRQKEVDFCISLLRSRFME is higher in protein stability index: 1.52 for the first, 5.14 for the second.

First: AQLQALRQKEVDFCISLLRERQME
Second: AQLQALRQKEVDFCISLLRERNME
The protein stability index of the first is higher: 1.98 for the first, 1.69 for the second.

Compared with AQLQALRQKEVDFCISNLRERFME, AQLQALRQKELDFCISLLRERFME is higher in protein stability index: 2.1 for the first, 4.26 for the second.

Compared with AQLQALRQKEVDYCISLLRERFME, WQLQALRQKEVDFCISLLRERFME is lower in protein stability index: 5.35 for the first, 2.49 for the second.

First: AQLQALRQKEVDFCISLLMERFME
Second: AQLQALRQQEVDFCISLLRERFME
The protein stability index of the first is lower: 2.43 for the first, 3.5 for the second.

Going from AQLQALRQKEVDFCIELLRERFME to AQLQDLRQKEVDFCISLLRERFME, the protein stability index falls from 3.24 to 2.68.

Compared with AQLQALRQTEVDFCISLLRERFME, AQLQALRQKEVDFCISLLRERFMY is higher in protein stability index: 2.45 for the first, 2.66 for the second.

Reference: the supplement of paper PMC10567573
